Results taken from article PMC6128652, “Structure of the Cladosporium fulvum Avr4 effector in complex with (GlcNAc)6 reveals the ligand-binding mechanism and uncouples its intrinsic function from recognition by the Cf-4 resistance protein” (PLoS Pathogens, 2018).
Entries after “also recorded” stand apart in the source; their conditions may differ.

Columns and labels:
[1] = Isothermal titration calorimetry (ITC) of CfAvr4 variants with chitin hexasaccharide; format: binding; details: ITC; for increase in the Kd relative to WT-CfAvr4: (GlcNAc)6
Experimental: A stock solution of the monomer of N-acetylglucosamine was prepared by dissolving the dry powder in a buffer containing 10 mM Bis-Tris, pH 6.5, 100 mM NaCl to a concentration of 0.100 g/L using analytic techniques. Standard solution of 0, 0.010, 0.025, 0.050, 0.075 g/L were prepared by serial dilutions. Using glass test tubes and pipets, 100 μL of each standard was mixed with 300μL of concentrated sulfuric acid and vortexed for 10 sec to mix. Solutions were incubated at RT for 10 min and then placed on ice to stop the reaction. […] Analytically prepared solution of the di- and tri-saccharide scaled linearly to the calibration curve. To determine the concentration of the chitin hexasaccharide solutions used in ITC, the solutions were diluted into the dynamic range of the calibration curve (S12 Fig) and subjected to the above procedure.
All ITC experiments were performed on a TA Instruments low volume NanoITC with a 186uL reaction cell and a reference cell filled with degassed Milli-Q grade water. Reactions were run in a buffer containing 10mM Bis-Tris, pH 6.5, 100 mM NaCl. The reservoir solution was filled with protein solution and continuously stirred while Chitin hexasaccharide solutions titrated in 2.5μL aliquots for 19 injections, with an initial 1μL injection, for a total injection volume of 48.5μL. The carbohydrate solutions were made by dissolving the dry powder in buffer to a concentration of 20mM (confirmed using methods described above) and then diluted to the working concentration using the final buffer exchange flow through to match the buffers as closely as possible. The integrated heats, after correction for the heat of dilution were analyzed using the NanoAnalyze software from […]. An individual binding site model was used to fit the binding isotherm. All experiments were replicated a minimum of three times.

Cf-4 = experiment: Agrobacterium tumefaciens transient transformation assay (ATTA): co-expression with Cf-4 in Nicotiana benthamiana leaves; format: in vivo; details: N. benthamiana, three cell density ratios 0.5:1, 1:1, 2:1
Experimental: The Agrobacterium tumefaciens transient transformation assay (ATTA) was used for the transient co-expression into leaves of Nicotiana benthamiana of Cf-4 with the WT-CfAvr4 and the mutants thereof tested in this study. Briefly, N. benthamiana plants were grown in a growth chamber with 16 h of artificial light and 70% humidity, at 25°C for 4 weeks. The true mature form of the WT-CfAvr4 (i.e. between Lys30-Gln115) and of the mutants thereof were singly cloned into the binary expression vector pICH47742 downstream of the PR1A signal sequence of Nicotiana tabacum for targeted secretion into the apoplast, and under the control of CaMV 35S promoter and NOS terminator. The tomato Cf-4 was cloned into pMOG800 as descripted before. Binary vector plasmids were transformed into A. tumefaciens strain GV3101 by electroporation. For the ATTA assay, agrobacteria transformed with pMOG800:Cf-4 was grown in 10mL LB-mannitol medium (LB medium with 10 g/L mannitol) amended with 50 μg/mL kanamycin and 25 μg/mL rifampicin, whereas agrobacteria transformed with pICH47742:WT-CfAvr4 or pICH4774:CfAvr4-mutants were grown in LB-mannitol amended with 100 μg/mL carbenicillin and 25 μg/mL rifampicin. All cultures were incubated at 28°C for 2 days, after which period they were pelleted at 2800g for 15 min, re-suspended in MMAi medium (5 g/L Murashige and Skoog basal salts, 20 g/L sucrose, 10 mM MES, and […]) at an optical cell density (A600) of 2.0, and further incubated for 2–4 h at room temperature. Agroinfiltrations were performed by mixing agrobacteria containing pMOG800:Cf-4 with agrobacteria containing pICH47742_WT-CfAvr4 or pICH47742:CfAvr4-mutants at three different ratios of optical cell densities, i.e. A6000.5:A6001.0, A6000.5:A6000.5, and A6000.5:A6000.25 of. The mixture of agrobacteria was infiltrated into the leaves of N. benthamiana plants using a 1 mL syringe and the induction of an HR in the infiltrated leaf sectors was evaluated at 5 days post-infiltrations. Control infiltrations were made using only the pMOG800:Cf-4 transformed agrobacteria and the agrobacteria containing pICH47742:CfAvr4 or the mutants thereof without mixing the two cultures, at cell densities of A6000.25, A6000.5, and A6001.0.

Cf-4 immune receptor = experiment: Pure protein infiltrations into tomato leaves of cv Purdue 135 (+ Cf-4), hypersensitive response; format: in vivo; details: 5 dpi
From the text: Tomato seeds were obtained from the Tomato Genetic Resource Center (TGRC) at UC Davis. WT-CfAvr4 and mutants thereof with single point mutations at selected amino acids were produced and purified from E. coli Rosetta-gami B cells as description above. […]

subtilisin = experiment: Subtilisin treatment (resistance against proteolytic degradation); format: in vitro ADME; set-up: key to Stability (Subtilisin assay): S: stable; PU: partially unstable; details: for Stability (Subtilisin assay): 500 ng/μL subtilisin, 30 min, room temperature; for susceptibility to proteolytic degradation by subtilisin: 500 ng/μl subtilisin, band of mature CfAvr4 on SDS-PAGE
Experimental: The WT-CfAvr4 and selected mutants thereof were exposed to the non-specific protease subtilisin in order to determine their resistance against proteolytic degradation. Treatments with subtilisin were made as previously described with minor modifications. Briefly, 40 μM of the E. coli-produced CfAvr4 and the selected CfAvr4 mutants were mixed with 10 mM of calcium chloride and 500 ng/μL of subtilisin (Sigma-Aldrich) in a total volume of 15 μL. Samples were incubated for 30 min at room temperature, after which period they were denatured by mixing with 10 mM PMSF and SDS-PAGE loading buffer, and heating at 98°C for 10 min. Digestion products were visualized on an SDS-PAGE after staining with Coomassie blue.

[2] = tested on: germlings of Trichoderma viride; experiment: In vitro protection assay of T. viride germlings against chitinases; format: cell-based; details: 5 μM protein with chitinases and β-1,3-glucanases; for protection of fungal hyphae against chitinases, fungal growth: 6–8 h
Experimental: The ability of the WT-CfAvr4 and of ChBD mutants to protect against chitinases was evaluated in in vitro protection assays conducted as described before. Briefly, spores of T. viride (3∙10^3) were pre-germinated overnight at room temperature in 100 μl of half-strength PDB medium in 96 well plates. The following day, 5 μM of WT-CfAvr4 or ChBD mutants were mixed with 7.5 units of Zymolyase (Zymo Research cat. no. E1004) and 0.2 units of bacterial chitinases (Sigma-Aldrich cat. no. C6137) and the mixture was added to the microtitre plate wells containing the pre-germinated spores in a final volume of 150 μl. Plates were incubated at 25°C for 6–8 h before evaluating under the microscope fungal growth and the ability of the proteins to provide protection against chitinases. Zymolase has β-1,3 glucanase and β-1,3-glucan laminaripentaohydrolase activity and is added to the mixture in order to remove the surface glucans from the fungal cell wall and thus expose the underlying chitin layer.

B1: Q69N (protein)
chain: KAPKTQPYNPCKPQEVIDTKCMGPKDCLYPNPDSCTTYINCVPLDEVGNAKPVVKPCPKGLQWNDNVGKKWCDYPNLSTCPVKTPQ
modifications: left off: 6x His (two), N-terminal, state not stated
[1]
  increase in the Kd relative to WT-CfAvr4: ~ 20 fold
Cf-4
  HR on transient co-expression with Cf-4: strong and similar in intensity HR
Cf-4 immune receptor; 5 μg/ml
  Cf-4-mediated HR after protein infiltration: weak HR response
Cf-4 immune receptor; 10 μg/ml
  Cf-4-mediated HR after protein infiltration: elicited an HR
Cf-4 immune receptor; both 5 μg/ml and 10 μg/ml
  Cf-4-mediated HR after protein infiltration: only partially trigger an HR
subtilisin
  Stability (Subtilisin assay): PU
  susceptibility to proteolytic degradation by subtilisin: vulnerable to proteolytic degradation; also recorded: decreased intensity of this band
[2]
  morphology of hyphae after chitinase treatment: signs of osmotic injuries such as swollen segments and coagulated cytoplasm; also recorded: signs of osmotic injuries, such as swollen segments and coagulated cytoplasm
  protection of fungal hyphae against chitinases, fungal growth: enable fungal growth to levels comparable to those of the WT-CfAvr4

B2: K84A (protein)
chain: KAPKTQPYNPCKPQEVIDTKCMGPKDCLYPNPDSCTTYIQCVPLDEVGNAKPVVAPCPKGLQWNDNVGKKWCDYPNLSTCPVKTPQ
modifications: left off: 6x His (two), N-terminal, state not stated
[1]
  increase in the Kd relative to WT-CfAvr4: ~ 20 fold
Cf-4
  HR on transient co-expression with Cf-4: full HR; also recorded: strong and similar in intensity HR
Cf-4 immune receptor; both 5 μg/ml and 10 μg/ml
  Cf-4-mediated HR after protein infiltration: strong and equal in intensity HR; also recorded: full HR; also recorded: strong and equally in intensity necrosis
subtilisin
  Stability (Subtilisin assay): S
  susceptibility to proteolytic degradation by subtilisin: as resilient to proteolysis as the WT-CfAvr4
[2]
  morphology of hyphae after chitinase treatment: signs of osmotic injuries such as swollen segments and coagulated cytoplasm; also recorded: signs of osmotic injuries, such as swollen segments and coagulated cytoplasm
  protection of fungal hyphae against chitinases, fungal growth: enable fungal growth to levels comparable to those of the WT-CfAvr4

B3: W100A (protein)
chain: KAPKTQPYNPCKPQEVIDTKCMGPKDCLYPNPDSCTTYIQCVPLDEVGNAKPVVKPCPKGLQWNDNVGKKACDYPNLSTCPVKTPQ
modifications: left off: 6x His (two), N-terminal, state not stated
[1]; compared with WT-CfAvr4
  effect of the mutation on binding to (GlcNAc)6: abolished all detectable binding
Cf-4
  HR on transient co-expression with Cf-4: full HR; also recorded: strong and similar in intensity HR
Cf-4 immune receptor; both 5 μg/ml and 10 μg/ml
  Cf-4-mediated HR after protein infiltration: strong and equal in intensity HR; also recorded: full HR; also recorded: strong and equally in intensity necrosis
subtilisin
  Stability (Subtilisin assay): S
  susceptibility to proteolytic degradation by subtilisin: as resilient to proteolysis as the WT-CfAvr4
[2]
  protection of fungal hyphae against chitinases, fungal growth: essentially failed to protect the fungal hyphae against chitinases; also recorded: fail to protect the fungal hyphae
